Experimental findings from article PMC3741289 are described below.

Assay [1] has as its target wild type HspB5 (αB-crystallin) (human) (UniProt P02511). The experiment in a line: SEC; cells treated for 2 h with 60 µM menadione before lysis; 10,000×g supernatant on Sepharose 6B in TEM buffer; fractions immunoblotted.
The target of assay [2] is HspB1 (Hsp27) (human (endogenous in HeLa)) (UniProt P04792). The experiment in a line: co-IP; as the 150 mM experiment, but washes of the immunoprecipitated proteins in IPP300 buffer (0.3 M NaCl).
The target is the same in assay [3]. The experiment in a line: co-IP; pooled gel filtration fractions (pool I of WT cells, pool II of R120G cells) with anti-HspB1 or anti-HspB5 antibody, 4 h at 4°C, protein G sepharose; washes in IPP150 (20 mM Tris-HCl pH 8, 150 mM NaCl, 0.05% NP-40); immunoblot of total, precipitate and depleted supernatant. (SEC sorts molecules by how far they enter the pores of the column.)

The target in assay [4] is wild type HspB5 (αB-crystallin) (human) (UniProt P02511). The experiment in a line: SEC; untreated Neo, WT or R120G HeLa cells lysed in TEM buffer with 0.1% Triton X-100; 10,000×g supernatant on a Sepharose 6B column (1×100 cm) in TEM buffer (20 mM Tris-HCl pH 7.4, 20 mM NaCl, 5 mM MgCl2, 0.1 mM EDTA); pooled fractions immunoblotted.
Assay [5] has the same target. The experiment in a line: co-IP; as the 150 mM experiment, but washes of the immunoprecipitated proteins in IPP300 buffer (0.3 M NaCl).

wild type HspB5 (αB-crystallin) (human), sequence (P02511 whole entry): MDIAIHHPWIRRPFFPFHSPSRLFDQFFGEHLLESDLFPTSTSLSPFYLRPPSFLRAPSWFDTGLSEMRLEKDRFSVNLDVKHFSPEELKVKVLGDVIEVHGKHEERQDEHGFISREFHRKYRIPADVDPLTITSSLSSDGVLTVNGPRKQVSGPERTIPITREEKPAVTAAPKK
HspB1 (Hsp27) (human (endogenous in HeLa)), sequence (P04792 whole entry): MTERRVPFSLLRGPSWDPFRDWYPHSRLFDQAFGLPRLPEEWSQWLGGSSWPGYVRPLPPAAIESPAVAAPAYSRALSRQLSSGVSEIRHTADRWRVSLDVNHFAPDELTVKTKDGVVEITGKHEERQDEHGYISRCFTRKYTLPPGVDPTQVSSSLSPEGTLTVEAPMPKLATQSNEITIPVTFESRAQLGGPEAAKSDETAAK

Take “HspB1 phosphorylated at serine 78 (from UniProt P04792 1-205) (natural protein)”: in assay [1], the percent of the soluble phosphorylated form in the complex turned out to be 65% and the percent of the total cellular content of the phosphorylated form in the complex was found to be 31%.
With “wild type HspB5 (αB-crystallin) (from UniProt P02511 1-175) (natural protein)”, the percent of the partner removed from the complex by the 300 mM NaCl wash in assay [2] is 40%. Further, the percent of the proteins in the pooled fractions that were in the complex in assay [3] stood at 100%.
For the substance “HspB1 phosphorylated at serine 82 (from UniProt P04792 1-205) (natural protein)”, the percent of the soluble phosphorylated form in the complex in assay [1] was determined as 51%. In addition, the percent of the total cellular content of the phosphorylated form in the complex was determined as 27% in assay [1] and 56% in assay [4].
Turning to “HspB1 (Hsp27) (from UniProt P04792 1-205) (natural protein)”, the percent of the partner removed from the complex by the 300 mM NaCl wash in assay [5] stood at 40%. The same substance yielded a percent of soluble HspB1 back in the small oligomers (out of the complex) in assay [1] of 38%. In assay [4], this substance registered a percent of HspB1 sharing the native size of HspB5 of 90%.
As for “HspB1 phosphorylated at serine 15 (from UniProt P04792 1-205) (natural protein)”, in assay [1], the percent of the soluble phosphorylated form in the complex was 56% and the percent of the total cellular content of the phosphorylated form in the complex came out at 28%.
